# Results taken from patent US20060063727, “Tr4/tr2 response elements” (published 2006).
# T1: TR4 orphan receptor (NR2C2) (Homo sapiens) (UniProt P49116)
# T1 sequence: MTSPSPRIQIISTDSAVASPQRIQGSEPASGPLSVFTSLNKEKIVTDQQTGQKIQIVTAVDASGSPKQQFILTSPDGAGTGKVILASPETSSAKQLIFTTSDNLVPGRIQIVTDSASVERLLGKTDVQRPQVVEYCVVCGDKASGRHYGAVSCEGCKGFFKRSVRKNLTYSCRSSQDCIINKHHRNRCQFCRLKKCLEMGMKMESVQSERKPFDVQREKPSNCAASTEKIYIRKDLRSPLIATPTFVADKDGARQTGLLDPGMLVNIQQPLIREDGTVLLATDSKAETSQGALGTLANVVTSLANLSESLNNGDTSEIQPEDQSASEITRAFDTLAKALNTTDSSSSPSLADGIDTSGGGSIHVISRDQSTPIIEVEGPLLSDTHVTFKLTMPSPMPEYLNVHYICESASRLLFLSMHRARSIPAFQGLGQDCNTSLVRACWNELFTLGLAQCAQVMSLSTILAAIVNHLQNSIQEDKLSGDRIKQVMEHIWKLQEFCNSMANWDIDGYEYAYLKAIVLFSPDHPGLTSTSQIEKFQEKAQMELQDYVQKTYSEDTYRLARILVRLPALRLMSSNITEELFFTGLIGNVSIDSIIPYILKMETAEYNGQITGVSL
# T2: TR2 orphan receptor (TR2-11, NR2C1) (Homo sapiens, UniProt P13056 SEQ:1-603)
# T2 chain: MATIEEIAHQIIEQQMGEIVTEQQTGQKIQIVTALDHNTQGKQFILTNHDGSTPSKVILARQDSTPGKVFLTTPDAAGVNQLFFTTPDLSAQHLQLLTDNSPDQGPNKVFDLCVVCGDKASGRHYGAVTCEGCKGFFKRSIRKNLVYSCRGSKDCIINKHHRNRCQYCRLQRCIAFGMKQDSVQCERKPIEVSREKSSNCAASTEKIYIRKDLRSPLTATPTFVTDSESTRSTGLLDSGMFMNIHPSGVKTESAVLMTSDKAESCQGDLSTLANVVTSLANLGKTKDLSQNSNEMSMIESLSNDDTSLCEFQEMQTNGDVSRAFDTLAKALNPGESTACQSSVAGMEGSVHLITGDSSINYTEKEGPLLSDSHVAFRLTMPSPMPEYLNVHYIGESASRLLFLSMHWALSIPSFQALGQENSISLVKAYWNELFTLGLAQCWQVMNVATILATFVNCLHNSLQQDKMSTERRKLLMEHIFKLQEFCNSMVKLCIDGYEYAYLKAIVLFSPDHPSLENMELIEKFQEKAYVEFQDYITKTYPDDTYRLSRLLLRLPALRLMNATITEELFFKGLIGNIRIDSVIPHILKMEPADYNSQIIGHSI
# Experiments:
# [1] = molecular target: T1, TR4 orphan receptor (NR2C2) (Homo sapiens); assay: competition; settings: competitive EMSA
# [2] = molecular target: T2, TR2 orphan receptor (TR2-11, NR2C1); assay: EMSA; competed by excess unlabeled oligo; supershift with anti-TR2 G204; settings: tags: none stated, pSG5-hTR2-11, TNT rabbit reticulocyte lysate; label: 32P
# Experimental: EMSA analysis was performed as described previously (Lee, H. J., and Chang, C. (1995) J. Biol. Chem. 270, 5434-5440). […] For competition reactions, unlabeled HPV-16 DR4RE oligonucleotides were mixed with labeled probe prior to its addition to the reaction. Antibody shift analysis involved the addition of 1 μl of the monoclonal anti-TR2 orphan receptor antibody, G204, to the reaction for 15 min., at room temperature, prior to gel loading.
# The site consists of two consensus A(G/T)(G/T)TCA half sites with a spacing of 4 nucleotides (ATGTCAccctAGTTCA). To determine whether TR2 was able to bind the HPV-16 DR4RE, gel shift analysis was performed. […] Also in FIG. 3A, a mock in vitro transcription/translation reaction was used in lane 3, and lane 4 contains ³²P-labeled HPV-16 DR4RE alone. To further confirm the binding specificity of TR2 for the HPV-16 DR4RE, a TR2-specific monoclonal antibody was added, resulting in an upward shift of the labeled complex (FIG. 3B).
# [3] = molecular target: T2, TR2 orphan receptor (TR2-11, NR2C1); assay: EMSA; Scatchard; 25 mM Tris pH 8.0, 50 mM KCl, poly(dI.dC); settings: tags: none stated, pSG5-hTR2-11, TNT rabbit reticulocyte lysate; label: 32P
# Experimental: Electrophoretic mobility shift assay analysis was performed as previously described (Jiang, C. K. et al. (1991) J Invest Dermatol 97, 969-973). The oligonucleotides were 5′ end labeled with γ-³²P ATP (specific activity=6000 Ci/mmole) (New England Nuclear) by T4 polynucleotide kinase. The specific activity reached 2-8×10⁸ cpm/μg. Labeled oligonucleotides (0.1 ng) were incubated with in vitro translated proteins, in the presence or absence of unlabeled oligonucleotide competitor or rabbit antiserum against TR2 (Cooney, A. J. et al. (1993) J Biol Chem 268, 4152-4160), for 15 min at room temperature. The binding buffer contained 25 mM Tris-HCl (pH 8.0), 10% glycerol, 50 mM KCl, 2 mM EDTA, 0.05% TritonX-100, 5 mM DTT, 1% β-mercaptoethanol, 5 ng/ml bovine serum albumin, 1.5 units/ml aprotinin, and 1 μg poly(dI.dC) (Pharmacia). […] The radioactive gels were analyzed by PhosphorImager (Molecular Dynamics). […]
# To clarify the potential mechanism for the differential regulation of PPARα signal pathway by TR2 and TR4, the Kds (equilibrium dissociation constants) for TR2 and TR4 binding to PPRE were calculated using Scatchard analysis. […] The Kd values calculated here were consistent with the range of Kd values for nuclear receptors and their hormone response elements.
molecule,measurement,setting,value
CRBPII (DR1),IC50,[1]; best of natural elements,0.023 ng
DR4 synthetic,IC50,"[1]; range end assigned by order, weakest synthetic DR",0.24 ng
DR6 synthetic,IC50,[1]; range end assigned by order DR6>DR5>DR1>DR3>DR2>DR4,0.08 ng
ERE (palindrome),IC50,"[1]; weakest natural element, bound poorly, range end assigned by order",85 ng
HPV-16 DR4RE (dsDNA) DNA 1: ATGTCACCCTAGTTCA DNA 2: TGAACTAGGGTGACAT,binding result,[2],binds
PPRE (rat acyl-CoA oxidase) (dsDNA) DNA 1: GTCGACAGGGGACCAGGACAAAGGTCACGTTCGGGAGTCGAC DNA 2: GTCGACTCCCGAACGTGACCTTTGTCCTGGTCCCCTGTCGAC,Kd,[3],1.23 nM
